Experimental data as given in patent US20240425589A1 (Chugai, published 2024).

Key:
hCLDN3/BaF3 = target: T1, hCLDN3/BaF3; assay: flow cytometry on hCLDN3/BaF3 cells, detection with Alexa Fluor 488 anti-human IgG
T1 construct: also called human CLDN3 on Ba/F3 cells
T1 membrane protein: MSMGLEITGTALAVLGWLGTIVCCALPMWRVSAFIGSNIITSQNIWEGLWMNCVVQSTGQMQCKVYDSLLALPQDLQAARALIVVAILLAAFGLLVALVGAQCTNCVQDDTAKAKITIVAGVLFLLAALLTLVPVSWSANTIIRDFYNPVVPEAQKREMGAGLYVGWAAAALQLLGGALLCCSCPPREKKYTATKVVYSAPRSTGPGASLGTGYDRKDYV

hCLDN4/BaF3 = target: T2, hCLDN4/BaF3; assay: flow cytometry on hCLDN4/BaF3 cells, detection with Alexa Fluor 488 anti-human IgG
T2 construct: also called human CLDN4 on Ba/F3 cells
T2 membrane protein: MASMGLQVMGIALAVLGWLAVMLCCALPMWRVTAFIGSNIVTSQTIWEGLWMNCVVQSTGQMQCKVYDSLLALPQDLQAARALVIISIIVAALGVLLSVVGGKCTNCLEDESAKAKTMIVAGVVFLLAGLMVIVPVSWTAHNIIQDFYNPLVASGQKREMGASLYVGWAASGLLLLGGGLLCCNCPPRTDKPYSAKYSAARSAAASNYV

hCLDN9/BaF3 = target: T3, hCLDN9/BaF3; assay: flow cytometry on hCLDN9/BaF3 cells, detection with Alexa Fluor 488 anti-human IgG
T3 construct: also called human CLDN9 on Ba/F3 cells
T3 membrane protein: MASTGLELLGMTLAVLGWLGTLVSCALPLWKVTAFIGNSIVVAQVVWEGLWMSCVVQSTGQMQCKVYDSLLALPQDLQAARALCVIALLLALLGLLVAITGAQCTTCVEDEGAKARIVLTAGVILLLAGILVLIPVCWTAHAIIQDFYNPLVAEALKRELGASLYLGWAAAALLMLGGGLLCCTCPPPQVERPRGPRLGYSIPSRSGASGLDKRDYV

[1] = target: T4, human CLDN6 on Ba/F3 cells (hCLDN6/BaF) (human, UniProt P56747 1-220); assay: flow cytometry on hCLDN6/BaF3 cells, detection with Alexa Fluor 488 anti-human IgG
T4 construct: also called human Claudin-6
T4 chain: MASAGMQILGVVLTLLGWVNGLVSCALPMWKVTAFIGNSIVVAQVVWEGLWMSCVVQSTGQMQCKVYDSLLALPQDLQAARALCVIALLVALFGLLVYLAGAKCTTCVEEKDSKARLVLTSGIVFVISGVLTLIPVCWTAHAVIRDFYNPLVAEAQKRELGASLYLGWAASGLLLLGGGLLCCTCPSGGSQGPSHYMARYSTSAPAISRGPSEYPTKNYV

[2] = target: cyno CLDN6 VLP (virus-like particle) (cynomolgus monkey)
human CD3eg linker = target: T5, human CD3eg linker (human); assay: SPR Biacore 8K, 25 C, pH 7.4, antibody captured by anti-human Fc on CM4 chip, CD3eg injected at 500 and 2000 nM, 1:1 fit
T5 construct: Single-chain construct: CD3 gamma and epsilon subunits joined by a 29-mer linker, Flag-tag at the C-terminal end of the gamma subunit; also called recombinant human CD3; gamma and epsilon subunits of the human CD3 complex linked by a 29-mer linker, Flag-tag
T5 chain: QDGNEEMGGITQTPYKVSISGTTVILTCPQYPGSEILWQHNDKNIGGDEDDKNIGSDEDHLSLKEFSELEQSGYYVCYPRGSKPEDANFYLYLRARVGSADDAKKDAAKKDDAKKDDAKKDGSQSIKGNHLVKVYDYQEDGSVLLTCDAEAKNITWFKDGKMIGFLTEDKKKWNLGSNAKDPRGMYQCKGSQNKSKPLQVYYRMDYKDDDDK

recombinant cyno CD3eg = target: T6, recombinant cyno CD3eg (cynomolgus monkey); assay: as above
T6 construct: Construct not described; also called cyno CD3eg (gamma and epsilon subunits of CD3)
T6 sequence (Q95LI5 22-117, chain 1 of 2): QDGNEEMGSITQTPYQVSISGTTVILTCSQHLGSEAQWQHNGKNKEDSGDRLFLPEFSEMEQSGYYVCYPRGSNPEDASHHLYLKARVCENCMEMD
T6 sequence (Q95LI7 23-113, chain 2 of 2, further chain): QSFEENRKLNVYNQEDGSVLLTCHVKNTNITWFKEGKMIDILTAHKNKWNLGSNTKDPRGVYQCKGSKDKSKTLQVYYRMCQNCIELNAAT

[3] = target: T7, Human CD137 extracellular domain (ECD) with hexahistidine (His-tag) and biotin acceptor peptide (BAP) (human); assay: SPR Biacore 8K, 37 C, pH 7.4, antibody captured by anti-human Fc on CM4 chip, CD137 injected at 500 and 2000 nM, 1:1 fit
T7 construct: Expressed in FreeStyle293F cells; also called recombinant human CD137; human CD137 ECD; not shown: C-terminal hexahistidine tag and biotin acceptor peptide (BAP)
T7 sequence (chain, as listed by the source): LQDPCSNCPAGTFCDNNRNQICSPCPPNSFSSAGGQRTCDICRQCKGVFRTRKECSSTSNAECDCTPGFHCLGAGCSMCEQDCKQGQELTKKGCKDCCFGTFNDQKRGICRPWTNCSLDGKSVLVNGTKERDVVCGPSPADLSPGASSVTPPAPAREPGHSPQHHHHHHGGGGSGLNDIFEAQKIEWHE

recombinant cyno CD137 = target: T8, recombinant cyno CD137 (cynomolgus monkey, UniProt A9YYE7 24-186); assay: as above
T8 sequence: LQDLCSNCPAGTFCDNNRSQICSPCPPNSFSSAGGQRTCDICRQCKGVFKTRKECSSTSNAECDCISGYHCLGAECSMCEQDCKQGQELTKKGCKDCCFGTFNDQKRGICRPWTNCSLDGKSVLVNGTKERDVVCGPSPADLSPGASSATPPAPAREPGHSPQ

[4] = target: T9, human CLDN6 VLP (virus-like particle) (human, UniProt P56747 1-220); assay: SPR Biacore T200, 25 C, pH 7.4, CLDN6 VLP captured by anti-human CD81 on C1 chip, antibody injected at 50 and 200 nM, 1:1 fit
T9 chain: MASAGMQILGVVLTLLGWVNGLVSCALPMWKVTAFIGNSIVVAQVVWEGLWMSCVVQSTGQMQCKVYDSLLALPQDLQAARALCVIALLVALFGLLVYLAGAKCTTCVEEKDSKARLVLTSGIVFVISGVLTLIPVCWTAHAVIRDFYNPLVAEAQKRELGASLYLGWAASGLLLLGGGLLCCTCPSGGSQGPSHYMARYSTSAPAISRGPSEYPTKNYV

B1: CS2961 (bispecific antibody, V domains shown)
VH 1: QVQLVESGGGVVQPGGSLRLSCAASGFTFSSYTMSWVREAPGQGLEWMGTISSGGGRTYYPDSVKGRFTISRDNSKNTLYLQMNSLRDEDTAVYYCARGDYRYDGFAYWGEGTLVTVSS
VL 1: DIQMTQSPSSLSASVGDRVTITCRASYNIDSYLAWYQKKPGKAPELLIYYSTLLVDGVPDRFSGSRSGTDFTLTISSLQPEDFATYYCQHYYSIPYTFGQGTKVEIE
VH 2: QVQLVESGGGVVQPGGSLRLSCAASGFTFSNAWMHWVRKAPGKGLEWVAQIKDKSQNYATYVAESVKGRFTISRADSKNSIYLQMNSLKTEDTAVYYCRYVHYAAGYGVDIWGQGTTVTVSS
VL 2: DIVMTQSPLSLPVTPGEPASISCRSSQPLVHSNRNTYLHWYQEKPGQAPRLLIYKVSNRFSGVPDRFSGSGSGTDFTLKISRVEAEDVGVYYCGQGTQVPYTFGQGTKLEIK
notes: detected with anti-human IgG; also called anti-CLDN6/CD3 bispecific antibody (CS2961)
binding result (hCLDN3/BaF3): no binding (tested: 15 micro g/ml)
binding result (hCLDN4/BaF3): no binding (tested: 15 micro g/ml)
binding result (hCLDN9/BaF3): no binding (tested: 15 micro g/ml)

B2: 6PHU3/TR01 (bispecific antibody, V domains shown)
VH 1: EVQLQQSGPELVKPGASMKISCKASGYSFTGYTMNWVKQSHGKNLEWIGLINPYNGGTIYNQKFKGKATLTVDKSSSTAYMELLSLTSEDSAVYYCARDYGFVLDYWGQGTTLTVSS
VL 1: DIVLTQSPSIMSVSPGEKVTITCSASSSVSYMHWFQQKPGTSPKLCIYSTSNLASGVPARFSGRGSGTSYSLTISRVAAEDAATYYCQQRSNYPPWTFGGGTKLEIK
VH 2: QVQLVESGGGVVQPGGSLRLSCAASGFTFSNAWMHWVRQAPGKGLEWVAQIKDKSQNYATYVAESVKGRFTISRADSKNSIYLQMNSLKTEDTAVYYCRYVHYAAGYGVDIWGQGTTVTVSS
VL 2: DIVMTQSPLSLPVTPGEPASISCRSSQPLVHSNRNTYLHWYQQKPGQAPRLLIYKVSNRFSGVPDRFSGSGSGTDFTLKISRVEAEDVGVYYCGQGTQVPYTFGQGTKLEIK
notes: also called anti-CLDN6/CD3 bispecific antibody (6PHU3/TR01)
binding result (hCLDN3/BaF3): no binding (tested: 15 micro g/ml)
binding result (hCLDN4/BaF3): no binding (tested: 15 micro g/ml)

B3: KLH/TR01 (bispecific antibody, V domains shown)
VH 1: QVQLQQSGPQLVRPGASVKISCKASGYSFTSYWMHWVNQRPGQGLEWIGMIDPSYSETRLNQKFKDKATLTVDKSSSTAYMQLSSPTSEDSAVYYCALYGNYFDYWGQGTTLTVSS
VL 1: DIQMTQSSSSFSVSLGDRVTITCKASEDIYNRLAWYQQKPGNAPRLLISGATSLETGVPSRFSGSGSGKDYTLSITSLQTEDVATYYCQQYWSTPYTFGGGTKLEVK
VH 2: QVQLVESGGGVVQPGGSLRLSCAASGFTFSNAWMHWVRQAPGKGLEWVAQIKDKSQNYATYVAESVKGRFTISRADSKNSIYLQMNSLKTEDTAVYYCRYVHYAAGYGVDIWGQGTTVTVSS
VL 2: DIVMTQSPLSLPVTPGEPASISCRSSQPLVHSNRNTYLHWYQQKPGQAPRLLIYKVSNRFSGVPDRFSGSGSGTDFTLKISRVEAEDVGVYYCGQGTQVPYTFGQGTKLEIK
notes: also called negative control
binding result [1]: no binding (tested: 15 micro g/ml)
binding result (hCLDN9/BaF3): no binding (tested: 15 micro g/ml)

B4: PPU4135 (bispecific antibody, human IgG1, kappa, L234A L235A, N297A)
heavy 1: QVQLVESGGGVVQPGGSLRLSCAASGFTFSSYTMSWVRQAPGQGLEWMGTISSGGGRTYYPDSVKGRFTISRDNSKNTLYLQMNSLRDEDTAVYYCARGDYRYDGFAYWGEGTLVTVSSASTKGPSVFPLAPSSKSTSGGTAALGCLVEDYFPEPVTVSWNSGALTSGVHTFPAVLESSGLYSLSSVVTVPSSSLGTQTYICNVNHKPSNTKVDKRVEPKSCDKTHTCPPCPAPEAAGGPSVFLFPPKPKDTLMISRTPEVTCVVVDVSHEDPEVKFNWYVDGVEVHNAKTKPREEQYASTYRVVSVLTVLHQDWLNGKEYKCKVSNKALPAPIEKTISKAKGQPREPQVYTLPPSREEMTKNQVSLTCLVKGFYPSDIAVEWESNGQPENNYKTTPPVLDSDGSFFLYSKLTVDKSRWQQGNVFSCSVMHEALHNHYTQESLSLSP
light 1: DIQMTQSPSSLSASVGDRVTITCRASYNIDSYLAWYQQKPGKAPELLIYYSTLLVDGVPDRFSGSRSGTDFTLTISSLQPEDFATYYCQHYYSIPYTFGQGTKVEIERTVAAPSVFIFPPSDEQLKSGTAKVVCLLNNFYPREAKVQWKVDNALQSGNSKESVTEQDSKDSTYSLSSTLTLSKADYEKHKVYACEVTHQGLSSPVTKSFNRGEC
heavy 2: QVQLVESGGGLVQPGRSLRLSCAASGFKFSNVWFHWVRQAPGKGLEWVAQIKDYYNAYAAYYAPSVKGRFTISRDDSKNSIYLQMNSLKTEDTAVYYCHYVHYASASTLLPAEGVDAWGQGTTVTVSSASTKGPSVFPLAPSSKSTSGGTAALGCLVKDYFPEPVTVSWNSGALTSGVHTFPAVLKSSGLYSLSSVVTVPSSSLGTQTYICNVNHKPSNTKVDKRVEPKSCDKTHTCPPCPAPEAAGGPSVFLFPPKPKDTLMISRTPEVTCVVVDVSHEDPEVKFNWYVDGVEVHNAKTKPREEQYASTYRVVSVLTVLHQDWLNGKEYKCKVSNKALPAPIEKTISKAKGQPREPQVYTLPPSRKEMTKNQVSLTCLVKGFYPSDIAVEWESNGQPENNYKTTPPVLDSDGSFFLYSKLTVDKSRWQQGNVFSCSVMHEALHNHYTQKSLSLSP
light 2: DIVMTQSPLSLPVTPGEPASISCQPSQEVVHMNRNTYLHWYQQKPGQAPRLLIYKVSNRFPGVPDRFSGSGSGTDFTLKISRVEAEDVGVYYCAQGTSHPFTFGQGTKLEIKRTVAAPSVFIFPPSDEQLKSGTAEVVCLLNNFYPREAKVQWKVDNALQSGNSEESVTEQDSKDSTYSLSSTLTLSKADYEKHKVYACEVTHQGLSSPVTKSFNRGEC
notes: also called CS4135; Ab03
Kd [2]: 3.77 nM
koff [2]: 0.000821 s⁻¹
kon [2]: 218000 M⁻¹ s⁻¹
Kd (human CD3eg linker): 341 nM
koff (human CD3eg linker): 0.0266 s⁻¹
kon (human CD3eg linker): 78000 M⁻¹ s⁻¹
Kd (recombinant cyno CD3eg): 329 nM
koff (recombinant cyno CD3eg): 0.0332 s⁻¹
kon (recombinant cyno CD3eg): 101000 M⁻¹ s⁻¹
Kd [3]: 46.8 nM
koff [3]: 0.000591 s⁻¹
kon [3]: 12600 M⁻¹ s⁻¹
Kd (recombinant cyno CD137): 174 nM
koff (recombinant cyno CD137): 0.00146 s⁻¹
kon (recombinant cyno CD137): 8350 M⁻¹ s⁻¹
Kd [4]: 3.65 nM
koff [4]: 0.000794 s⁻¹
kon [4]: 217000 M⁻¹ s⁻¹
